This passage reports response results from publication PMC11237401.

In the first test the target is DivIC. Nature of the test: BACTH (bacterial adenylate cyclase-based two-hybrid). As to conditions: T18 fusion: Gp11 or mutant; T25 fusion: DivIC; parent: est. 5500; read off a plot.
Consider Gp11 A38E, for which the response came out at 1900 Miller Units.
Turning to Gp11 G36R, the response was 100 Miller Units.
Take Gp11 S33L: the response was 3200 Miller Units.

The next test concerns the target MurG (UniProt Q2FYL5). The test is described as above. Particulars: T18 fusion: Gp11 or mutant; T25 fusion: MurG; parent: est. 5300; read off a plot.
UniProt Q2FYL5, sequence (Q2FYL5 whole entry, the tested form may be a part): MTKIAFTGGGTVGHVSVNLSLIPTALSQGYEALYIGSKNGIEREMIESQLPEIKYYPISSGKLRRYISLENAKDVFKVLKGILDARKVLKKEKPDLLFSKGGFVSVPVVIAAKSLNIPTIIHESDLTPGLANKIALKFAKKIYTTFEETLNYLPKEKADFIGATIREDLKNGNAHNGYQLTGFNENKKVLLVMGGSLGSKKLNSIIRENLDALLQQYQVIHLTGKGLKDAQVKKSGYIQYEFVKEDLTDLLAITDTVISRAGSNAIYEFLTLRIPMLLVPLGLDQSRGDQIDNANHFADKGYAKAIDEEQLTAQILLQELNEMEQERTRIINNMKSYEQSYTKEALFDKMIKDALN
Consider Gp11 A38E, for which the response came to 150 Miller Units.
The same measure, in the same setting: under Gp11 G36R stands 100 Miller Units; under Gp11 S33L, 1600 Miller Units.
